Several values for one entry are separate records, joined by “and”; a condition that tells them apart may be missing. Equal values may be shown once. Entries after “also recorded” stand apart in the source; their conditions may differ. Each block holds one molecule with its values, some of them ahead of it. Positions of bridges follow the written chain, without caps; N, C: chain ends. Non-standard residues stand in square brackets, D forms with d. No end group written: not given here. GC8 = D-glucoside-derived uronic acid with C8 alkyl chain; Aib = CC(C)(N)C(=O)O
Columns and labels:
human GLP-1R = target: T1, human GLP-1R (Homo sapiens, UniProt P43220); assay: cAMP receptor activation assay, human GLP-1R cloned into CHO cells (DiscoverX LeadHunter / cAMP Hunter); assay type: cell-based
T1 construct: host or cells: CHO-K1
T1 sequence (P43220 24-463): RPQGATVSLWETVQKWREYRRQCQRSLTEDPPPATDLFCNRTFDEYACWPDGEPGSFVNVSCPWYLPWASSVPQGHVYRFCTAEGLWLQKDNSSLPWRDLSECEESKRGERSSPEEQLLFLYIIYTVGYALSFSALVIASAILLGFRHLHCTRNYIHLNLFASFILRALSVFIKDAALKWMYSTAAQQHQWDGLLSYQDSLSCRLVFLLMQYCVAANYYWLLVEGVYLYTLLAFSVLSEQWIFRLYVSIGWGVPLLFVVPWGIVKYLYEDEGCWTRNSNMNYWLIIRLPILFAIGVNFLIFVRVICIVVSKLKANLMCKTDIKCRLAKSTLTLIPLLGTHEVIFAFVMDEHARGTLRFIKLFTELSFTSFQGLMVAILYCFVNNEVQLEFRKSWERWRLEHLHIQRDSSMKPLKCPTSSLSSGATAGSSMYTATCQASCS

GCGR = GCGR (Homo sapiens, UniProt P47871); assay: cAMP receptor activation assay, human GCGR cloned into CHO cells (DiscoverX LeadHunter / cAMP Hunter); assay type: cell-based; design: host or cells: CHO-K1; conditions: cAMP, CHO cells, 0.1% BSA containing buffers; read-out: pEC50 (SE) huGCGR (converted)
[1] = pharmacokinetics in Gottingen minipigs (cassette sc dosing, 20 nmol/kg); assay type: in vivo, Gottingen minipig; conditions: 20 nmol/kg sc, analogue 2 at 4 h, 4 at 2-12 h, 5 at 2, 12, 24 h
Text: This study uses a cassette style dosing, to minimize large animal usage, but with injection subcutaneously at separate sites to preclude each compound's influencing uptake of another compound. A total of two male Gottingen minipigs were assigned to study. The animals were pair housed in pens on raised floor caging. The animals weighed between approximately 11-15 kg at transfer and approximately 5-8 months of age. The same animals were to be used for multiple phases, following a minimum 1-week washout period. To facilitate dosing and to ensure animal safety during the dosing procedure, animals were sedated with Telazol (IM, 4-6 mg/kg) prior to dosing. Dosing was subcutaneous via bolus injection between the skin and underlying layers of tissue in the ventral region of the animal. A total of […] sites were used for each phase with different compounds dosed at each of the 4 sites. Compounds are formulated in saline containing 0.2% BSA […] at pH 3.5. Each stock solution was diluted with normal saline (pH 7.4) to the required final conc and sterile filtered. Dosing is at 20 nmol/kg. Blood samples were collected pre-dose and at 2, 4, 6, 8, 12, 24, 36, 48, 72 and 96-hours post-dose. At each blood collection time point a 1 mL sample is taken from the jugular vein into K2EDTA tubes on ice before processing to plasma by centrifugation. The plasma samples containing the 4 test compounds were sent to Climax Labs for separation and quantitation by LC-MS/MS as noted below (2.5.3).
Analysis was carried out at Climax Laboratories (San Jose, Calif.) on an API-4000 Mass Spectrometer, ESI positive, MRM scan. Samples were loaded on a Shimadzu HPLC/CTC Autosampler with an ACE C4 column (2.1×50 mm, 5 μm). Elution was by gradient from aqueous 0.5% formic acid, 5 mM NH4OAc to 0.5% formic acid in CH3CN/H2O (9:1). […] After transfer to a 96 well plate, a 40 μL sample was injected and the individual compound peaks were quantitated with standard curves. […] The quantitation limit is 1-2 ng/mL, depending on analog structure.

[2] = clinical studies, cited from earlier work
[3] = CMC of Polysorbate 20 in F58 buffer pH 7.7 with added ALT-801 by surface tensiometry; assay type: physicochemical
Text: CMC shifts are simply calculated as CMC in the presence of the ALT-801 less the CMC for the surfactant alone in solution.

[4] = in vitro stability in pooled human plasma; conditions: 1 to 10 μM; GLP-1 7-36 amide at 4 h, analogs at 8 h
[5] = target: human glucagon receptor (GCGR) (human, UniProt P47871 26-477); assay: cell-based or functional assay
[6] = target: human glucagon-like peptide 1 receptor (GLP-1R) (human, UniProt P43220 24-463); assay: cell-based or functional assay
Chain of human glucagon-like peptide 1 receptor (GLP-1R) (P43220 24-463): as above

plasma proteins of human [7] = assay: ultracentrifugation of spiked plasma (15000 ng/mL), 37 C, 6 h, LC-MS of supernatant; supernatant value BLQ, extrapolated
plasma proteins of dog [8] = assay: as above
plasma proteins of rat = assay: ultracentrifugation of spiked plasma (15000 ng/mL), 37 C, 6 h, LC-MS of supernatant
[9] = target: plasma proteins of monkey; assay: as above
plasma proteins of human [10] = assay: as above
plasma proteins of dog [11] = assay: as above
[12] = target: bovine serum albumin (BSA) (bovine, UniProt P02769 25-607); assay: method not stated (data not shown)
Chain of bovine serum albumin (BSA) (P02769 25-607 limits assumed): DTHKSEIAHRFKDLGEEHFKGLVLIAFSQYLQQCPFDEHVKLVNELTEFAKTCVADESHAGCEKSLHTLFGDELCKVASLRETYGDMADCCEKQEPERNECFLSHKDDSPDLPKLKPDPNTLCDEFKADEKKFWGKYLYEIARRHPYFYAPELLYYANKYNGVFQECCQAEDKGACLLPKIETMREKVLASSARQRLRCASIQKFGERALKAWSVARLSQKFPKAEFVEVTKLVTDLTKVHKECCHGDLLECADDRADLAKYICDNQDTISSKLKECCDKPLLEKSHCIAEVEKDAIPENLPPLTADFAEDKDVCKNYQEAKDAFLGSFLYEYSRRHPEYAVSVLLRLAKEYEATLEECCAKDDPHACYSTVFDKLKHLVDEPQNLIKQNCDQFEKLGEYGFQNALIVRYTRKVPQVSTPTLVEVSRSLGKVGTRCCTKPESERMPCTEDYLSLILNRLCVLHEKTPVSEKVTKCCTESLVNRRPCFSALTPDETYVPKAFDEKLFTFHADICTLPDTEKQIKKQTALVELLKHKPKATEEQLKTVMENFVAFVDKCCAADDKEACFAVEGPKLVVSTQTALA

Selectivity Ratio GLP-1R vs GCGR (human GLP-1R; SR = GCGR EC50/GLP-1 EC50, 0.1% BSA): 2 | EC50 (human GLP-1R; cAMP, CHO cells, 0.1% BSA containing buffers, read-out: pEC50 (SE) hu GLP-1 (converted)): 0.0126 nM | EC50 (GCGR): 0.02 nM | plasma levels compared to liraglutide [1]: Significantly higher plasma levels
Molecule: CCCCCCCCCCO[C@@H]1O[C@H](C(=O)NCCCC[C@H](NC(=O)[C@@H](NC(=O)[C@H](Cc2ccccc2)NC(=O)[C@H](CCC(=O)O)NC(=O)[C@@H]2CCCCNC(=O)CC[C@H](NC(=O)[C@H](CC(=O)O)NC(=O)[C@H](CC(C)C)NC(=O)[C@H](Cc3ccc(O)cc3)NC(=O)[C@H](CCCCN)NC(=O)[C@H](CO)NC(=O)[C@H](Cc3ccc(O)cc3)NC(=O)[C@H](CC(=O)O)NC(=O)[C@H](CO)NC(=O)[C@@H](NC(=O)[C@H](Cc3ccccc3)NC(=O)[C@@H](NC(=O)CNC(=O)[C@H](CCC(N)=O)NC(=O)C(C)(C)NC(=O)[C@@H](N)Cc3c[nH]cn3)[C@@H](C)O)[C@@H](C)O)C(=O)N[C@@H](CCC(N)=O)C(=O)N[C@@H](C)C(=O)N[C@@H](C)C(=O)N2)[C@@H](C)CC)C(=O)N[C@@H](Cc2c[nH]c3ccccc23)C(=O)N[C@@H](CC(C)C)C(=O)N[C@@H](CC(C)C)C(=O)N[C@@H](CCC(N)=O)C(=O)N[C@H](C(N)=O)[C@@H](C)O)[C@@H](O)[C@H](O)[C@H]1O [analogue 2]

EC50 (pM) hGCGR, cAMP accumulation, 0.1% BSA [5]: 20 pM | EC50 (pM) hGLP-1R, cAMP accumulation, 0.1% BSA [6]: 8 pM
Molecule: H[Aib]QGTFTSDYSKYLDEQAAKEFIK(GC8)WLLQT-NH2 (lactam 16-20) [Analogue 1 (SEQ ID NO: 12)]

percent bound to BSA [12]: > 99%
B1: EU-A1873 (SEQ ID NO: 1) (peptide)
peptide: HXQGTFTSDYSKYLDEKAAKEFIQWLLQT
modifications: Aib at 2; side chain lactam between Glu16 and Lys20; Lys17 acylated with Z17CO2H / GC18c (1-(17-carboxyheptadecyloxy) beta-D-glucuronyl); C-terminal amide (NH2)
notes: Synthetic 29-residue peptide amide; also called ALT-801; analogue 17
Percentage of ALT-801 Bound (plasma proteins of human [7]): 99.9% | Percentage of ALT-801 Unbound (plasma proteins of human [7]): 0.117% | Percentage of ALT-801 Bound (plasma proteins of dog [8]): 99.9% | Percentage of ALT-801 Unbound (plasma proteins of dog [8]): 0.126% | Percentage of ALT-801 Bound (plasma proteins of rat): 99.7% and 99.8% | Percentage of ALT-801 Bound, Mean (plasma proteins of rat): 99.8% | Percentage of ALT-801 Unbound (plasma proteins of rat): 0.334% and 0.204% and 0.184% | Percentage of ALT-801 Unbound, Mean (plasma proteins of rat): 0.241% | Percentage of ALT-801 Bound [9]: 100% | Percentage of ALT-801 Bound, Mean [9]: 100% | Percentage of ALT-801 Unbound, Mean [9]: 0.0487% | Percentage of ALT-801 Bound (plasma proteins of human [10]): 99.7% | Percentage of ALT-801 Bound, Mean (plasma proteins of human [10]): 99.8% | Percentage of ALT-801 Unbound (plasma proteins of human [10]): 0.309% | Percentage of ALT-801 Unbound, Mean (plasma proteins of human [10]): 0.213% | Percentage of ALT-801 Bound (plasma proteins of dog [11]): 99.7% and 99.8% | Percentage of ALT-801 Bound, Mean (plasma proteins of dog [11]): 99.8% | Percentage of ALT-801 Unbound (plasma proteins of dog [11]): 0.265% and 0.223% | Percentage of ALT-801 Unbound, Mean (plasma proteins of dog [11]): 0.205%

The remaining lines, values behind:

Molecule: CCCCCCCCCCCCCCCC(=O)N[C@@H](CCC(=O)NCCCC[C@H](NC(=O)[C@H](CC(=O)O)NC(=O)[C@H](CO)NC(=O)[C@@H](NC(=O)[C@H](Cc1ccccc1)NC(=O)[C@@H](NC(=O)CNC(=O)[C@H](CCC(N)=O)NC(=O)[C@H](CO)NC(=O)[C@@H](N)Cc1c[nH]cn1)[C@@H](C)O)[C@@H](C)O)C(=O)N[C@@H](CO)C(=O)N[C@@H](CCC(=O)O)C(=O)N[C@@H](Cc1ccc(O)cc1)C(=O)N[C@@H](CC(C)C)C(=O)N[C@@H](CC(=O)O)C(=O)N[C@@H](CO)C(=O)N[C@@H](CCC(=O)O)C(=O)N[C@@H](CCCNC(=N)N)C(=O)N[C@@H](C)C(=O)N[C@@H](CCCNC(=N)N)C(=O)N[C@@H](CC(=O)O)C(=O)N[C@@H](Cc1ccccc1)C(=O)N[C@H](C(=O)N[C@@H](C)C(=O)N[C@@H](Cc1c[nH]c2ccccc12)C(=O)N[C@@H](CC(C)C)C(=O)N[C@@H](CCC(=O)O)C(=O)N[C@@H](C)C(=O)NCC(=O)NCC(=O)O)C(C)C)C(=O)O [cotadutide]
reduction in liver fat content ([2]; 6 weeks): 39% | weight loss over 26 weeks [2]: 5.4%

Molecule: Polysorbate 20
Polysorbate 20 CMC Value, No ALT-801, Average [3]: 0.722 mg/mL | Polysorbate 20 CMC Value, No ALT-801 ([3]; Test # 1 and 2): 0.721 mg/mL and 0.722 mg/mL

Molecule: CC[C@H](C)[C@H](NC(=O)[C@H](Cc1ccccc1)NC(=O)[C@H](CCC(=O)O)NC(=O)[C@H](CCCCN)NC(=O)[C@H](C)NC(=O)[C@H](C)NC(=O)[C@H](CCC(N)=O)NC(=O)CNC(=O)[C@H](CCC(=O)O)NC(=O)[C@H](CC(C)C)NC(=O)[C@H](Cc1ccc(O)cc1)NC(=O)[C@H](CO)NC(=O)[C@H](CO)NC(=O)[C@@H](NC(=O)[C@H](CC(=O)O)NC(=O)[C@H](CO)NC(=O)[C@@H](NC(=O)[C@H](Cc1ccccc1)NC(=O)[C@@H](NC(=O)CNC(=O)[C@H](CCC(=O)O)NC(=O)[C@H](C)NC(=O)[C@@H](N)Cc1c[nH]cn1)[C@@H](C)O)[C@@H](C)O)C(C)C)C(=O)N[C@@H](C)C(=O)N[C@@H](Cc1c[nH]c2ccccc12)C(=O)N[C@@H](CC(C)C)C(=O)N[C@H](C(=O)N[C@@H](CCCCN)C(=O)NCC(=O)N[C@@H](CCCNC(=N)N)C(N)=O)C(C)C [GLP-1 7-36 amide]
stability in pooled human plasma (compound level remaining) [4]: rapidly destroyed to below quantitation limit; also recorded: rapid destruction

— patent US20210290732A1, “GLP-1R and GCGR Agonists, Formulations, and Methods of Use” (Spitfire Pharma LLC, priority 2020, published 2021)
